Patent publication US9959384 (BIONIZ, dated 2018)
No end group written: not given here.

Target: T1, human common gamma chain (γc, CD132) (human, UniProt P31785 23-369)
T1 sequence (looked up): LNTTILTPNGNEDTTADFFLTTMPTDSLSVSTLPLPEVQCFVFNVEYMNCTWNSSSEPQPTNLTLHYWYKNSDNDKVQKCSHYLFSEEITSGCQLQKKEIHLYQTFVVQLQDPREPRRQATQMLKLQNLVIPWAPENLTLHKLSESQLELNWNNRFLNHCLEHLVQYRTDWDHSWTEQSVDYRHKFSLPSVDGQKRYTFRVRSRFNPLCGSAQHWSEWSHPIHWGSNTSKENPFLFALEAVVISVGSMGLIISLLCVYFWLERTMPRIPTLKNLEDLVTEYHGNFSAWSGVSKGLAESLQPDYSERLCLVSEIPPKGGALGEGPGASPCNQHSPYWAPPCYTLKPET
Assay: cell-based or functional assay

IC50 of inhibition of IL-2/IL-15-induced proliferation of ex vivo human T-lymphocytes (IL-2 + IL-15, 0.1 nM each): 150 nM
Binder: IKEFLQSFIHIVQSIINT (not fully specified) [BNZ132-1 peptide]
